The record followed here is the nanobody polyreactivity screen of Harvey et al. (2022).

The nature of the series: yeast display, Sf9 membrane polyspecificity reagent, FACS + sequencing; frameworks hold sequencing errors. In outline:
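A nanobody's polyreactivity label depends on the gate it was sorted from. Yeast display cells were stained with 10% biotinylated, detergent-solubilized Sf9 membrane reagent for 1 hour at 4 °C, enriched on streptavidin microbeads and sorted by FACS. The low and high (top ~1%) gates were set on anti-HA fluorescence for expression and streptavidin fluorescence for reagent binding.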
Regarding “QVQLVESGGGLVQAGGSLRLRCAASGHIFGRYAMGWYRQAPGKERELVAAFTSGGTTYYADSVKGRFTISRDNAKNTVYLQMNSLKPEDTAVYYCAAKFQLKRYSSPFIWYDSWGQGTQVTVSS”, the “polyreactivity (PSR sort gate)” value is “high polyreactivity”.
Turning to “QVQLVESGGGLVQAGGSLRLRCAASGIIFGTNAMGWYRQAPGKERELVAGITSSGDSTYYADSVKGRFTISRDNAKNTVYLQMNSLKAEDTAVYYCARDIRTREFDSWGQGTQVTVSS”, the “polyreactivity (PSR sort gate)” value is “low polyreactivity”.
As to “QVQLVESGGGLVQAGGSLRLRCAASGISFRRNVMGWCRQAPGKERELVARISRAGSTKYADSVKGRFTISRDTAKNTVYLQMTSLKPEDTAVYYCNKVTRRNGQPYDYWGQGTQVTVSS”, the “polyreactivity (PSR sort gate)” value is on record as “high polyreactivity”.
The entry for “QVQLVESGGGLVQAGGSLRLRCAASGMGWYRQAPGKEWEKVATITWSDGITYADSVKGRFTISRDNAKNTVYLQMNSLKPEDTAVYYCNADWDQTGTVFYSFGLREMDSWGQCTQVTVSS” is “low polyreactivity”.
The entry for “QVQLVESGGGLVQAGGSLRLRCAASGRIFPWYAMGWYRHAPGGEREFVAVISRSGGSTYYADSVKGRFTISRDNAKNTVYLQMNSLKPEDTAVYYCASDGKFEYDYWGQGTQVTVSS” is “low polyreactivity”; for “QVQLVESGGGLVQAGGSLRLRCAASGRIFRGYAMGWYRQAPGKERELVAAISWSGGSSTYADSVKGRFTISLDNAKNTVYLQMNSLKPEDTAVYDCNRVSRGRGRLTVDYQAEGYDSWGQGTQVTVSS” it is “high polyreactivity”.
As to “QVQLVESGGGLVQAGGSLRLRCAASGRIFYFNAMGWYRQAPGKEREFVASINSIGDSTYYADSVKGRFTISRDTAKNTVYLQMNSLKPEDTAVYYCNADHGVINYRLDYWGQGTQVTVSS”, the “polyreactivity (PSR sort gate)” value is “low polyreactivity”.
The entry for “QVQLVESGGGLVQAGGSLRLRCAASGRILVRYAMGWYRQAPGKERELVAAISRGGSTTYADSVKGRFTISRDNAKNTVYLQMNSLKPEDTAVYYCAAGRYPYNRDYWGQGTQVTVSS” is “high polyreactivity”; for “QVQLVESGGGLVQAGGSLRLRCAASGRNIHWYAMGWSRQAPGKEMELVAAITGSGGRTSYADSVKGRFTISRDFAKNTVYLQMNSLKPQDTAVYYCAKRATWYTVPREGYWGQGTQVTVSS” it is “high polyreactivity”.
The entry for “QVQLVESGGGLVQAGGSLRLRCAASGRTFGPYTMGWYRQAPGKEREFVAAINSSGSRTYYADSVKGRFTISRDNAKNTVYLQMNSLKPEDTAVYYCAAEAKWYYSWSYPYEGDYWGQGTQVTVSS” is “low polyreactivity”; for “QVQLVESGGGLVQAGGSLRLRCAASGRTFIVYAMGWYRQAPGKERELVARISSGSRTSYADSVKGRFTISRDNAKNTVYLQMNSLKPEDTAVYYCAKSRVIKYEFDYWGQGTEVTVSS” it is “low polyreactivity”.
The entry for “QVQLVESGGGLVQAGGSLRLRCAASGRTIGPYAMGWYRQEPRKERELVAAISWSGGSTYYADSVKGRFTISRDNAKNTVYLQMNSLKPVDTAVYFCAAVYYSHVYYWGQGTQVTVSS” is “high polyreactivity”; for “QVQLVESGGGLVQAGGSLRLRCAASGRTVVGTTMGWYRQAPGKEREVVAAISSGGRTYYADSVKGRFTISRDNAKNTVYLQMNSLIPVDTAVYYCAARRRGKVVPTSQFDYWGQGTQVTVSS” it is “high polyreactivity”.
“QVQLVESGGGLVQAGGSLRLRCAASGSIFFYYVMGLSRQAPGKERELVAVISSGGGSTYYADSVKGRFTISRDNAKYTVYLQMNSLKPEDTAVYYCAAGTYYKFYYWGQGTQVTESS”: the “polyreactivity (PSR sort gate)” value is recorded as “high polyreactivity”.
As to “QVQLVESGGGLVQAGGSLRLRCAASGSIFGAYAMAWYRQAPGKERELVAAINSDISTNYADSVKGRFTISRDNAKNTVYFQMTSVKPEDTAVYYCGVDWPRIYLRYNYWGQGTAVTVSS”, the “polyreactivity (PSR sort gate)” value is given as “low polyreactivity”.
In the case of “QVQLVESGGGLVQAGGSLRLRCAASGSIFNFYAMGGYRQAPGKERELVATINWSGGRTYYADSVKGRFTISRDNATNTVYLQMNSLNTEDTAVYYCAASRYFRGDYWGQGTQGTVSS”, the “polyreactivity (PSR sort gate)” value was “high polyreactivity”.
On to “QVQLVESGGGLVQAGGSLRLRCAASGSIFNSYAMGWYRQAPGKERELVAAISIRGTRTYYADSVKGRFTISRDNAKNTVYLQMNSLKPEDTAVYYCAADASYTEGMDYWGQGTQVTVSS”, for which the “polyreactivity (PSR sort gate)” value was “high polyreactivity”.
The entry for “QVQLVESGGGLVQAGGSLRLRCAASGSIFYGYAMGWYRQAPGKESEFVAAITTTGGSTYYADSVKGRFTISRDNSKYTVYLQMNSLKPEDTAVYYCATSGDRLVWGQVTQVTVSS” is “low polyreactivity”.
The entry for “QVQLVESGGGLVQAGGSLRLRCAASGSTFAWYAMGWYRQAPGKESELVAAITQNGGRTYYADSVKGRFTISRDNAKNTVYLQMNSLKPEDTAVYYCANAFIQPGYKYDSWGQVTQVTVSS” is “high polyreactivity”.
The entry for “QVQLVESGGGLVQAGGSLRLRCAASGSTFAYYAMGWYRQAPGKERELVAAISSGGSTYYADSVKGRFTISRDNAKNTVYIQMNSLKAEETAVYYCNKLRVVKFKRYEFGEWGQGTQVTVSS” is “low polyreactivity”; for “QVQLVESGGGLVQAGGSLRLRCAASGSTFVPYAMGWYRQAPWKERELVAAITWNGGRTYYADSVKGRYTISRDNANNTVYLQMNSLKPEDTAVYFCNGLSYTWACYYWGQGTRVTVSS” it is “high polyreactivity”.
For “QVQLVESGGGLVQAGGSLRLRCAASGSTFYRYALGWYRQAPGKERELVAVITSGGGTYSADSVKGRFSISRDNAKNTVYLQLNSRKPEDTAVYDCAARYLRTRNYQYDYWGQGTQVTVSS”, the “polyreactivity (PSR sort gate)” value is “high polyreactivity”.
The entry for “QVQLVESGGGLVQAGGSLRLRCAASGSTFYYYAMGWYRQAPGKERELVAANTLRGTSTYYADSVKGRFTISRDNAKNTVYLQMNRLKPEDTAVYYCAVETYYSIFDIYDYWGQGTQVTVSS” is “low polyreactivity”; for “QVQLVESGGGLVQAGGSLRLRCAASGSTLYIYAMGWYRQAPGKERELVAAITSSTGSTYADSVKGRFTISRDNAKNTVYLQMNSLKPEDTAVYYCNAGGPLQPYDYWGQGTQVTVSS” it is “low polyreactivity”.
The entry for “QVQLVESGGGLVQAGGSLRLRCAASGYIFGAYALGWYRQAPGKERELVAAIHVGDASAYYADSVKGRFTISRDNAKKTVYLQMNSLKPEDTAVYYCAKDRGSWEWYTVDYWGQGTQVTVSS” is “low polyreactivity”.
The entry for “QVQLVESGGGLVQAGGSLRLRCAASGYTLGPYAMGWYRQAPGKERELVAAISWGGGRTYYADSVKGRFTISRDNAKNTVYLQMNSLKPEDTAVYYCAAKWSHVRDGPKYDYWGQGTQVTVSS” is “low polyreactivity”; for “QVQLVESGGGLVQAGGSLRLRCAAYGSNFVLNAMGLDRKAPGKERELVAAISRGGASTYYADSVKGRFTIARDNSKNTVYLQMTSLKPEDTAVYYCNASGYGQGVVIYLVLYDYWGQGTQVTVSS” it is “low polyreactivity”; for “QVQLVESGGGLVQAGGSLRLRSASSGYILFAYAMVWYRQAPGKERELVATISNYGGITYYAESVKGRFTISRDNAKNTVYLQMNRLKPEDNAVYYCAAAEAGGLVTYDYWGQGTQVTVSS” it is “low polyreactivity”.
Take “QVQLVESGGGLVQAGGSLRLSCAAAGLTFQPYVLGWYRQAPGKERELVAAISVRTTRTYYADSVKGRFTISRDNAKNTVYLQMNSLKPEDTAVYYCNVSGVLYPFVSYDYWGQGTHVTVSS”: the “polyreactivity (PSR sort gate)” value is recorded as “low polyreactivity”.
The entry for “QVQLVESGGGLVQAGGSLRLSCAAAGRISYANAMGWYRQAPGKERELVASITYSAGSTYADSVKGRFTISRDNAKNTVYLQMNSLKPEDTAVYYCAKRPSQHYRSYLMDYWGQGTQVTVSS” is “low polyreactivity”.
The entry for “QVQLVESGGGLVQAGGSLRLSCAAAGSNFLGYAMGWYRQAPGKERELVANITSSGSTSYADSVKGRFTISRDNAKNTVYLQMNSLKPEVTAVYYCAARFRRTYDYWGQGTQVTVSS” is “high polyreactivity”; for “QVQLVESGGGLVQAGGSLRLSCAAAGSTFSYYTMGWYRQAPGKERELVAAITRSGGRTYYADSVKGRFTISRDNAKYTVYLQMNSLKPEDTAVYYCAREYYPDWGQGTQVTVSS” it is “high polyreactivity”.
The entry for “QVQLVESGGGLVQAGGSLRLSCAACGFTFRYNAMGWYRQAPGKERELVAAITRGGGNTYYADSVKGRFTISRDHAKNTVYLQMNSLKPEDTAVYYCAAYSNGGRYDYGYWGQGTQVTVSS” is “high polyreactivity”; for “QVQLVESGGGLVQAGGSLRLSCAACGGIFWHYTLGWYRKAPGKERELVAAITRRGGSTYYADSVMGRFTISRDNAKNTVYLQMNSLKPEDTAVYYCAADFLPQSYNWYDYWGQGTQVTVSS” it is “low polyreactivity”.
Take “QVQLVESGGGLVQAGGSLRLSCAACGLTFDDYAMGWSRQAPGKERELVAAISKSGDGTYYADSVKGRFTISRDNAKNTVYLQMNSLKPEDTAVYYCNADAKYWGFVYWWFGEDNWGQGTQVPVSS”: the “polyreactivity (PSR sort gate)” value was “low polyreactivity”.
For the sequence “QVQLVESGGGLVQAGGSLRLSCAACGRIFGENAMGWYRQAPGKERELVASISSTDSTYYADSVKGRFTISRDNAKNTVYLQMNSLKPEDTAVYYSAARWISVWSEGAEHDYWGQGTQVTVSS”, the “polyreactivity (PSR sort gate)” value is reported as “low polyreactivity”.
Consider “QVQLVESGGGLVQAGGSLRLSCAACGRIFNRYAMGWYRQAPGKERELVAAIRYSGGRTYYADSVKGRFTISRDNAKNTVYLQMNSLKPEDTAVYYCAADGQWYYAPFRGGDYENDYWGQGTQVTVSS”, for which the “polyreactivity (PSR sort gate)” value is on record as “low polyreactivity”.
The entry for “QVQLVESGGGLVQAGGSLRLSCAACGSIFYWNAMVWYRQAPGKERELVAAINSGDSTNYADSVKGRFTISRDNAKNTVYFQMNSLKPEDTAVYYCAASIYAALNGGPGYDYWGLGTQVTVSS” is “low polyreactivity”.
The entry for “QVQLVESGGGLVQAGGSLRLSCAANGYIFLIYDRGWYRQSPGKEMELVAAISNSVGSTYADSVKGRFTISRDNAKNTDYLQMNSLKPEDTAVYYCNADSGPIDGRGGYWGQGTQVTVSS” is “low polyreactivity”; for “QVQLVESGGGLVQAGGSLRLSCAANTMGCYRQAPGKERELVAAINTGSSTYYADSVKGRFRISRDNAKNTVYLQMYCLKPEDTAVYYCNASYPPYFEYRTRQYNYWGQGTQVTVSS” it is “low polyreactivity”.
The entry for “QVQLVESGGGLVQAGGSLRLSCAAPGSTFYLYAMGWYRQAPGKERELVAAISSGGRTNYADSVKGRFTISRDNAKNTVYLQMNSLKPEDTAVYYCAARIQCPTWSLYYYWGQGTQVTVSS” is “high polyreactivity”.
